Drawing on patent KR20210097819A (dated 2021), this text covers Kd for one molecule.

For this assay, the target named is T1, human TNFα N-his trimer (human, UniProt P01375 77-233).
T1 construct: Captured on an NTA sensor chip through the N-terminal His tag for Biacore; also called His-tagged TNF (made by ESBATech); not shown: N-terminal His tag
Nature of the assay: SPR (BIAcore T100), His-tagged TNFα captured on an NTA chip, scFv as analyte. Background: SPR reads the build-up and loss of mass on a sensor chip optically.

T1 sequence (P01375 77-233 limits assumed): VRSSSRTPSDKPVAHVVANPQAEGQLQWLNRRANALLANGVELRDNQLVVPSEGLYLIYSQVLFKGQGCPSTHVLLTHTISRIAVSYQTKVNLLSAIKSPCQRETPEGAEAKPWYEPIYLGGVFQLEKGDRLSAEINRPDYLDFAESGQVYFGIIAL

B1: EP43max (scFv)
chain: EIVMTQSPSTLSASVGDRVIIKCQASQSISDWLAWYQQKPGKAPKLLIYGASRLASGFPSRFSGSGSGAEFTLTISGLEPADFATYYCQQGWSDSYVDNLFGQGTKLTVLGGGGGSGGGGSGGGGSGGGGSEVQLVESGGGLVQPGGSLRLSCTVSGFSLSSGAMSWVRQAPGKGLEWVGVIISSGATYYASWAKGRFTISKDTSKNTVYLQMNSLRAEDTAVYYCARGGPDDSNSMGTFDPWGQGTLVTVSS
As usually defined, the Kd is a measure of binding affinity in units of concentration. Read a low Kd as a tighter complex. On to B1, for which the dissociation constant (Kd) is 0.25 nM.
